Here are results for 38 sequences from the supplement of paper PMC10201428.

± gives the standard deviation of the averaged measurements.

This data set has as its system VchCAST RNA-guided transposition machinery (E. coli BL21(DE3) host, lacZ target). The experiment in a line: relative integration efficiency (T-RL orientation) vs wild-type transposon end (log2 (normalized fold change)); transposon end mutated: right end (5 bp flank + 75 bp right end); higher = more efficient transposition. The method, then: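 Pooled, barcoded VchCAST (Tn6677) mini-transposon donor libraries; each variable transposon-end sequence sits in a fixed pDonor mini-transposon context (10-bp barcode and cargo not included). Left- or right-end libraries were co-transformed with pEffector (TniQ-Cascade, TnsABC, lacZ crRNA, T7, 0.1 mM IPTG) into E. coli BL21(DE3) and grown 18 h at 37 C. T-LR and T-RL junction amplicons were sequenced; output/input barcode fold change was normalised to the mean of four wild-type barcodes and log2-transformed. Two biological replicates; zero-count/undetected variants carry floor values (-10 / -15), censored here. Barcode uncoupling by PCR recombination adds noise.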
For the sequence “ACAAAACTTGATACAACCATAAAATGATAATTACACCCATAAATTGATAATTATCACACCCATAAATTGATATTGCCTCTGATCATAGTCAGACCAACATTGCTACGACCCGTATTCGCACCGACAC”, the “relative integration efficiency (log2)” value was -6.59 ± 0.45.

For “ACAGGGTTTGATACAACCATAAAATGATAATTACACCCATAAATTGATAATTATCACACCCATAAATTGATATTGCCTCTGATCATAGTCAGACCAACATTGCTACGACCCGTATTCGCACCGACAC”, the “relative integration efficiency (log2)” value is -7.26 ± 0.17. On to “ACATAACATGATACAACCATAAAATGATAATTACACCCATAAATTGATAATTATCACACCCATAAATTGATATTGCCTCTGATCATAGTCAGACCAACATTGCTACGACCCGTATTCGCACCGACAC”, for which the “relative integration efficiency (log2)” value is -5.71 ± 0.74. As for “ACATGGTGTGATACAACCATAAAATGATAATTACACCCATAAATTGATAATTATCACACCCATAAATTGATATTGCCTCTGATCATAGTCAGACCAACATTGCTACGACCCGTATTCGCACCGACAC”, the figure is -6.87 ± 0.18; as for “ACATTACTTGATACAACCATAAAATGATAATTACACCCATAAATTGATAATTATCACACCCATAAATTGATATTGCCTCTGATCATAGTCAGACCAACATTGCTACGACCCGTATTCGCACCGACAC”, -6.45 ± 0.27. As to “ACATTAGTCGATACAACCATAAAATGATAATTACACCCATAAATTCATAATTATCACACCCAATTTAACTATAACGCTCTGATCATAGTCAGACCAACATTGCTACGACCCGTATTCGCACCGACAC”, the “relative integration efficiency (log2)” value is -7.36 ± 0.82. For “ACATTAGTGGATACAACCATAAAATGATAATTACACCCATAAATGGATCATTATCACACCCAATTTAACTATAACGCTCTGATCATAGTCAGACCAACATTGCTACGACCCGTATTCGCACCGACAC”, the “relative integration efficiency (log2)” value is -6.91 ± 0.47. Turning to “ACATTAGTTCATACAACCATAAAATGATAATTACACCCATAAATTCATAATTATCACACCCAATTTAACTATAACGCTCTGATCATAGTCAGACCAACATTGCTACGACCCGTATTCGCACCGACAC”, the “relative integration efficiency (log2)” value was -6.79 ± 0.48.

For “ACATTAGTTCATACAACCATAAAATGATAATTACACCCATAAATTGATAATTATCACACCCAATTTAACTATAACGCTCTGATCATAGTCAGACCAACATTGCTACGACCCGTATTCGCACCGACAC”, the “relative integration efficiency (log2)” value was -7.98 ± 0.089.

With “ACATTAGTTCATACAACCATAAAATGATAATTACACCCATAAATTGATCATTATCACACCCAATTTAACTATAACGCTCTGATCATAGTCAGACCAACATTGCTACGACCCGTATTCGCACCGACAC”, the “relative integration efficiency (log2)” value was -7.24 ± 0.69. In the case of “ACATTGGTCGATACAACCATAAAATGATAATTACACCCATAAATGGATAATTATCACACCCAATTTAACTATAACGCTCTGATCATAGTCAGACCAACATTGCTACGACCCGTATTCGCACCGACAC”, the “relative integration efficiency (log2)” value was -7.16 ± 0.89. Regarding “ACATTGGTCGATACAACCATAAAATGATAATTACACCCATAAATGGATCATTATCACACCCAATTTAACTATAACGCTCTGATCATAGTCAGACCAACATTGCTACGACCCGTATTCGCACCGACAC”, the “relative integration efficiency (log2)” value was -7.2 ± 0.28. With “ACATTGGTGGATACAACCATAAAATGATAATTACACCCATAAATTGATAATTATCACACCCAATTTAACTATAACGCTCTGATCATAGTCAGACCAACATTGCTACGACCCGTATTCGCACCGACAC”, the “relative integration efficiency (log2)” value is -6.88 ± 0.39. Take “ACATTGGTTCATACAACCATAAAATGATAATTACACCCATAAATGGATCATTATCACACCCAATTTAACTATAACGCTCTGATCATAGTCAGACCAACATTGCTACGACCCGTATTCGCACCGACAC”: the “relative integration efficiency (log2)” value is -7.4 ± 0.26. As for “ACATTGGTTCATACAACCATAAAATGATAATTACACCCATAAATTGATCATTATCACACCCAATTTAACTATAACGCTCTGATCATAGTCAGACCAACATTGCTACGACCCGTATTCGCACCGACAC”, the figure is -7.14 ± 0.11; as for “ACATTGTGGGATACAACCATAAAATGATAATTACACCCATAAATTGATAATTATCACACCCATAAATTGATATTGCCTCTGATCATAGTCAGACCAACATTGCTACGACCCGTATTCGCACCGACAC”, -5.61 ± 0.22; as for “ACATTTCAACATACAACCATAAAATGATAATTACACCCATAAATTGATAATTATCACACCCATAAATTGATATTGCCTCTGATCATAGTCAGACCAACATTGCTACGACCCGTATTCGCACCGACAC”, -6.21 ± 0.12. As for “ACATTTGAACTTACAACCATAAAATGATAATTACACCCATAAATTGATAATTATCACACCCATAAATTGATATTGCCTCTGATCATAGTCAGACCAACATTGCTACGACCCGTATTCGCACCGACAC”, the figure is -5.07 ± 0.78; as for “ACATTTGTAAAAAAAACCATACGTTGATTTTACGAAACCATACGCTGAAATAAAAACAACCATACCTTGAAATTGCTTATGATCATAGTCAGACCAACATTGCTACGACCCGTATTCGCACCGACAC”, -8.13 ± 1.3. Turning to “ACATTTGTAAAAAAAACCATACGTTGATTTTACGAAACCATACGCTGAAATAATCACAACCATAAATTGATATTGCCTCTGATCATAGTCAGACCAACATTGCTACGACCCGTATTCGCACCGACAC”, the “relative integration efficiency (log2)” value is -6.87 ± 0.53. As for “ACATTTGTAAAAAAAACCATACGTTGATTTTACGAAACCATACGCTGAAATAATCACAACCATACCTTGAAATTGCCTCTGATCATAGTCAGACCAACATTGCTACGACCCGTATTCGCACCGACAC”, the figure is -7.16 ± 0.43. Take “ACATTTGTAAAAAAAACCATACGTTGATTTTACGAAACCATACGCTGAAATAATCACACCCATAAATTGAAATTGCCTCTGATCATAGTCAGACCAACATTGCTACGACCCGTATTCGCACCGACAC”: the “relative integration efficiency (log2)” value was -5.81 ± 0.093. In the case of “ACATTTGTAAAAAAAACCATACGTTGATTTTACGAAACCATACGCTGAAATAATCACACCCATAAATTGATATTGCCTCTGATCATAGTCAGACCAACATTGCTACGACCCGTATTCGCACCGACAC”, the “relative integration efficiency (log2)” value is -7.11 ± 0.15. Take “ACATTTGTTAATAAAACCATACGTTGATTTTACGAAACCATACGCTGAAATAATCACACCCATAAATTGATATTGCCTCTGATCATAGTCAGACCAACATTGCTACGACCCGTATTCGCACCGACAC”: the “relative integration efficiency (log2)” value was -6.57 ± 0.26. With “ACATTTGTTCAACCATAAAATGATAATTACACCCATAAATTGATAATTATCACACCCATAAATTGATATTGCCTCTGATCATAGTCAGACCAACATTGCTACGACCCGTATTCGCACCGACACTGAC”, the “relative integration efficiency (log2)” value is -7.3 ± 0.12. In the case of “ACATTTGTTCATACAACCCTAAAATGATAATTACACCCATAAATTCATAATTATCACCCCCAATTTAACTATAACGCTCTGATCATAGTCAGACCAACATTGCTACGACCCGTATTCGCACCGACAC”, the “relative integration efficiency (log2)” value is -5.3 ± 0.43. In the case of “ACATTTGTTGAAAAAACCATACGTTGATTTTACGAAACCATACGCTGAAATAATCACACCCATAAATTGATATTGCCTCTGATCATAGTCAGACCAACATTGCTACGACCCGTATTCGCACCGACAC”, the “relative integration efficiency (log2)” value is -6.48 ± 0.15. As for “ACATTTGTTGATAACCAACGCCCCGTCGCCGGCACAAACGCCCGGTCGCCGGCGACACAAACGCCCGGTCGCGGTAAGAGGATCATAGTCAGACCAACATTGCTACGACCCGTATTCGCACCGACAC”, the figure is -6.24 ± 0.19. As to “ACATTTGTTGATAACCAACGCCCCGTCGCCGGCCACCCATAAATTGATAATTATCACACCCATAAATTGATATTGCCTCTGATCATAGTCAGACCAACATTGCTACGACCCGTATTCGCACCGACAC”, the “relative integration efficiency (log2)” value is -7.56 ± 0.64. Turning to “ACATTTGTTGATACAACACGCCCCGTCGCCGGCACAAACGCCCGGTCGCCGGCGACACAAACGCCCGGTCGCGGTAAGAGGATCATAGTCAGACCAACATTGCTACGACCCGTATTCGCACCGACAC”, the “relative integration efficiency (log2)” value is -6.42 ± 0.17. With “ACATTTGTTGATACAACCATAAAATGATAATTAATAATTATTTATAATCAGCAACACCCATAAATTGATAATTATCACACCCATAAATTGATATTGCCTCTGATCATAGTCAGACCAACATTGCTAC”, the “relative integration efficiency (log2)” value is -3.61 ± 0.38. Take “ACATTTGTTGATACAACCATAAAATGATAATTAATAATTATTTATAATCAGCAACTTAACCACAAAACACCCATAAATTGATAATTAACAAAACACCCATAAATTGATATTGCTGTGAATCGAGTAT”: the “relative integration efficiency (log2)” value was -5.86 ± 0.28. On to “ACATTTGTTGATACAACCATAAAATGATAATTAATAATTATTTATAATCAGCAACTTAACCACAAAACACCCATAAATTGATAATTAACAAACACCCATAAATTGATATTGCCTCTGATCATAGTCA”, for which the “relative integration efficiency (log2)” value was -5.35 ± 0.69. As for “ACATTTGTTGATACAACCATAAAATGATAATTAATAATTATTTATAATCAGCAACTTAACCACAAAACACCCATAAATTGATAATTAACACACCCATAAATTGATATTGCCTCTGATCATAGTCAGA”, the figure is -5.33 ± 0.24; as for “ACATTTGTTGATACAACCATAAAATGATAATTAATAATTATTTATAATCAGCAACTTAACCACAAAACACCCATAAATTGATAATTATCACACCCATAAATTGATATTGCCTCTGATCATAGTCAGA”, -4.6 ± 1; as for “ACATTTGTTGATACAACCATAAACGTCGCCGGCACAAACGCCCGGTCGCCGGCGACACAAACGCCCGGTCGCGGTAAGAGGATCATAGTCAGACCAACATTGCTACGACCCGTATTCGCACCGACAC”, -6.69 ± 0.61. On to “ACATTTGTTGATACAACCATACCCGGATAATTACACCCATACCGGGATAATTATCACACCCATACCGGGATATTGCCTCTGATCATAGTCAGACCAACATTGCTACGACCCGTATTCGCACCGACAC”, for which the “relative integration efficiency (log2)” value is -6.7 ± 0.28. In the case of “ACATTTGTTGATACAACCATACCCGTATAATTACACCCATACCGGTATAATTATCACACCCATACCGGTATATTGCCTCTGATCATAGTCAGACCAACATTGCTACGACCCGTATTCGCACCGACAC”, the “relative integration efficiency (log2)” value was -8.04 ± 1.3.
